These are literature values, as cited in paper PMC5800599.

This data set concerns the target FcγRIIIa/CD16A (Homo sapiens) (UniProt P08637).

Sequence of FcγRIIIa/CD16A (Homo sapiens) (P08637 17-254): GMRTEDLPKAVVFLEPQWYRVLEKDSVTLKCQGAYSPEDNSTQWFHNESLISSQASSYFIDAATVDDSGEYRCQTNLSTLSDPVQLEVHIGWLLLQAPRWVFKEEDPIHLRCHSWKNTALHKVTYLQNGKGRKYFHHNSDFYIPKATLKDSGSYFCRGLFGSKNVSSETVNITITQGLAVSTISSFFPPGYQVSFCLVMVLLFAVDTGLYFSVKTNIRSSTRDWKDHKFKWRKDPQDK

With hIgG1 Fc Fc (from UniProt P01857), the Kd – broadly, the constant that tells how readily two partners part at equilibrium – is 550 nM.
